How the values were obtained:
Assay type in all cases: in vivo
hair follicles [1] = experiment: Hair growth in 4-month old female mice, topical application to shaved dorsal skin; conditions: 60 μl of 200 mg/ml topically twice daily, after 10 days, not seen with control vehicle
Method: The marked areas of the mice were applied by spreading topically on the exposed skin areas 60 μl of aqueous solutions of bovine lactoferrin (200 mg/ml), 60 μl of control vehicle (water), and 60 μl of bovine lactoferricin, obtained as set forth in Example 3, (200 mg/ml) twice daily. Observation for hair growth in the marked areas is made daily after the first treatment. […] The hair growth-promoting effect of lactoferrin or lactoferricin was consistently observed in all tested mice. Although lactoferricin was prepared by the method described in Example 3 above, the present invention should not be limited to use only lactoferricin prepared in such manner. Lactoferricin prepared by other methods would still fall within the scope of the present invention.

hair follicles [2] = experiment: Hair growth in young mice, topical application to shaved dorsal skin; conditions: 2-month old male ICR mice; for time until hair growth was observed after the treatment: water control 15-17 days
Method: To study the effect of lactoferrin in hair growth in young mice, five male ICR (outbred) mice, each 2 months old, were shaved to expose a portion of dorsal skin. For each treated mouse, the exposed portion of dorsal skin was further marked with three areas as illustrated in FIG. 1A to be subsequently administered different treatments. Referring to FIG. 1B, the three marked areas (from left to right) were treated by spreading topically on the exposed skin areas 60 μl of bovine lactoferrin (as an aqueous solution of 100 mg/ml), 60 μl of bovine lactoferrin (of 200 mg/ml) and 60 μl of control vehicle (water), respectively, on a twice daily basis. Observation for hair growth in the marked areas was made daily after the first treatment. […] The hair growth was observed on all five mice administered 200 mg/ml of lactoferrin 2 to 4 days after the treatment.
Hematoxylin and Eosin (H&E) staining was performed to microscopically examine the skin area treated with 200 mg/ml of lactoferrin or the control vehicle for 14 days. […] Thus, the proliferation of the anagen phase hair follicles evidently reflected the hair growth observed in the lactoferrin-treated area.

hair follicles [3] = experiment: Hair growth in aged mice, topical application to shaved dorsal skin; conditions: 11-month old male ICR mice; for time until hair began to grow on the treated areas after the treatment: water control 21-23 days
Method: To further test whether lactoferrin could induce hair growth in aged mice, five male ICR mice, each 11 months old, were similarly shaved and marked with three areas of the exposed dorsal skin as described in Example 1. The marked areas of the mice were applied by spreading topically on the exposed skin areas 60 μl of aqueous solutions of bovine lactoferrin (100 mg/ml), 60 μl of bovine lactoferrin (200 mg/ml) and 60 μl of control vehicle (water) twice a day. Observation for hair growth in the marked areas was made daily after the first treatment. […] In general, the mice treated with 200 mg/ml of lactoferrin began to grow hair on the treated areas 4-6 days after the treatment. […] Spontaneous hair growth in the control area was only observed 21-23 days after the treatment. The hair growth-promoting effect of lactoferrin was consistently observed in all tested mice.
The H&E staining method was performed in a manner similar to Example 1 to examine the skin area treated with 200 mg/ml of lactoferrin or the control vehicle for 14 days. […] Thus, the hair follicles are clearly activated or triggered to re-enter from the telogen-phase to the anagen-phase. The activation of the hair follicles also reflects the hair growth observed in the lactoferrin-treated area.

[4] = 200 mg/ml, 14 days of treatment, H&E histology

B1: lactoferrin (protein, UniProt P24627 20-708, looked up)
Lactotransferrin: APRKNVRWCTISQPEWFKCRRWQWRMKKLGAPSITCVRRAFALECIRAIAEKKADAVTLDGGMVFEAGRDPYKLRPVAAEIYGTKESPQTHYYAVAVVKKGSNFQLDQLQGRKSCHTGLGRSAGWIIPMGILRPYLSWTESLEPLQGAVAKFFSASCVPCIDRQAYPNLCQLCKGEGENQCACSSREPYFGYSGAFKCLQDGAGDVAFVKETTVFENLPEKADRDQYELLCLNNSRAPVDAFKECHLAQVPSHAVVARSVDGKEDLIWKLLSKAQEKFGKNKSRSFQLFGSPPGQRDLLFKDSALGFLRIPSKVDSALYLGSRYLTTLKNLRETAEEVKARYTRVVWCAVGPEEQKKCQQWSQQSGQNVTCATASTTDDCIVLVLKGEADALNLDGGYIYTAGKCGLVPVLAENRKSSKHSSLDCVLRPTEGYLAVAVVKKANEGLTWNSLKDKKSCHTAVDRTAGWNIPMGLIVNQTGSCAFDEFFSQSCAPGADPKSRLCALCAGDDQGLDKCVPNSKEKYYGYTGAFRCLAEDVGDVAFVKNDTVWENTNGESTADWAKNLNREDFRLLCLDGTRKPVTEAQSCHLAVAPNHAVVSRSDRAAHVKQVLLHQQALFGKNGKNCPDKFCLFKSETKNLLFNDNTECLAKLGGRPTYEEYLGTEYVTAIANLKKCSTSPLLEACAFLTR
notes: 78-80 kDa glycoprotein; commercially obtained bovine lactoferrin applied as aqueous solution
- hair growth observed in the treated skin area (hair follicles [1]): prominent hair growth
- number of anagen phase hair follicles relative to control vehicle-treated area (hair follicles [2]; [4]): approximately two-fold
- skin thickness versus control vehicle-treated skin (hair follicles [2]; [4]): no significant difference
- time until hair growth was observed after the treatment (hair follicles [2]; 60 μl of 100 mg/ml aqueous solution topically twice daily): 3 to 5 days
- time until hair growth was observed after the treatment (hair follicles [2]; 60 μl of 200 mg/ml aqueous solution topically twice daily): 2 to 4 days
- speed of hair growth versus control vehicle-treated skin (hair follicles [2]; lactoferrin-treated skin (100 and 200 mg/ml), twice daily): more rapid hair growth
- subcutaneous fat and skin thickness versus control area (hair follicles [3]; 200 mg/ml, 14 days, H&E): increased subcutaneous fat and increased thickness of skin
- hair follicle phase in histological examination (hair follicles [3]; 200 mg/ml, 14 days, H&E, control area uniform telogen-phase follicles): a large number of anagen-phase (actively growing stage) hair follicles
- hair growth observed in the treated skin area (hair follicles [3]; 200 mg/ml, after 11 days of treatment, not seen with control vehicle): prominent hair growth
- time until hair began to grow on the treated areas after the treatment (hair follicles [3]; 60 μl of 100 mg/ml topically twice a day): 6 to 8 days
- time until hair began to grow on the treated areas after the treatment (hair follicles [3]; 60 μl of 200 mg/ml topically twice a day): 4 to 6 days
- inflammation and morphological abnormalities of the treated skin (hair follicles [3]; topical lactoferrin twice a day): no inflammation and morphological abnormalities

— US8178486B2, “Method for promoting hair growth” (Animal Technology Institute Taiwan, priority 2005, dated 2012)
